2 molecules from PMC8192741, “The Komagataeibacter europaeus GqqA is the prototype of a novel bifunctional N-Acyl-homoserine lactone acylase with prephenate dehydratase activity” (Scientific Reports, 2021) can be followed below.

One may read the Km as the concentration of substrate that gives half-maximal velocity. A word on the Vmax: it is the rate approached at saturating substrate. As a reminder, the stoichiometry N is the number of molecules, sites or subunits per partner or assembly.

The target in one data set is T1, GqqA (Komagataeibacter europaeus, UniProt A0A0M0ELU2).
T1 construct: E. coli BL21(DE3); homodimer of 61 kDa; primers encode N-terminus MNGERIIA and C-terminus LRRKP; PDT domain 1-180, ACT domain 194-281
Description: X-ray crystal structure, […] Å. In kind it is binding. The following applies: ACT regulatory domain at dimer interface, one per monomer; co-purified, not added.

The target of a further data set is T2, SeGqqA (Komagataeibacter europaeus, UniProt A0A0M0ELU2, DEL86-170).
T2 construct: gene gqqA; selenomethionine-substituted GqqA; residues 86-170 lost by proteolysis during crystallization (not engineered; termini V85 and His171); made as full length with C-terminal TEV site and His6 tag in E. coli BL21(DE3)
T2 sequence (A0A0M0ELU2 with tags, fused parts or gaps DEL86-170): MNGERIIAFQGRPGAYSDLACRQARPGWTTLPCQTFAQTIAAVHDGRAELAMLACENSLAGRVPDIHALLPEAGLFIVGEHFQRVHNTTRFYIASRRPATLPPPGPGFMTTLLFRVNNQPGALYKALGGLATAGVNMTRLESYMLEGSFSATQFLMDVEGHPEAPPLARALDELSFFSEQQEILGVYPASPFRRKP
Kind of data set: X-ray crystal structure (SAD), […] Å. In kind it is binding. The following applies: ACT regulatory domain; not added.

Substrate in data set [1]: CCCC(=O)CC(=O)N[C@H]1CCOC1=O
Kind of data set: purified protein. In kind it is biochemical, Komagataeibacter europaeus. The following applies: 5 mM EPPS pH 8.0, 0.5 mM Phenol Red, 30 °C, substrate 0-65 mM.

Substrate in data set [2]: CCCCCC(=O)CC(=O)N[C@H]1CCOC1=O
Kind of data set: purified protein. It counts as biochemical, Komagataeibacter europaeus. The following applies: 5 mM EPPS pH 8.0, 0.5 mM Phenol Red, 30 °C, substrate 0-65 mM.

Substrate in data set [3]: CCCCCCCC(=O)CC(=O)N[C@H]1CCOC1=O
Kind of data set: purified protein. It counts as biochemical, Komagataeibacter europaeus. The following applies: 5 mM EPPS pH 8.0, 0.5 mM Phenol Red, 30 °C, substrate 0-65 mM.

Substrate in data set [4]: CCCCCCCCCC(=O)CC(=O)N[C@H]1CCOC1=O
Kind of data set: purified protein. The following applies: 5 mM EPPS pH 8.0, 0.5 mM Phenol Red, 30 °C, substrate 0-65 mM. In kind it is biochemical, Komagataeibacter europaeus.

Data set [5] deals with the molecule itself. Kind of data set: dynamic light scattering; GqqA 3.6 mg/ml in 0.1 M K2HPO4 pH 5.0, 150 mM NaCl, 20 °C; hydrodynamic radius 3.9 ± 0.1 nm; long-term measurement at room temperature for 4 days.

For `N[C@@H](Cc1ccccc1)C(=O)O` [L-Phe], the “X-ray crystal structure, 2.5 Å” value at GqqA is listed as “within the dimer interface we identified two L-Phe molecules”. Further, the “X-ray crystal structure (SAD), 1.7 Å” value at SeGqqA is recorded as “L-Phe is also bound in the truncated SeGqqA”.

B1: GqqA (enzyme, Komagataeibacter europaeus CECT 8546)
chain: MNGERIIAFQGRPGAYSDLACRQARPGWTTLPCQTFAQTIAAVHDGRAELAMLACENSLAGRVPDIHALLPEAGLFIVGEHFQRVEHCLLGIPGSTLADARRIHTHPVAMAQVRGIITELGLDPVVEFDTAGAAEMVREWGRKEDVAVASALAAELNGLEILRRNVEDATHNTTRFYIASRRPATLPPPGPGFMTTLLFRVNNQPGALYKALGGLATAGVNMTRLESYMLEGSFSATQFLMDVEGHPEAPPLARALDELSFFSEQQEILGVYPASPFRRKP
notes: GqqA, quorum quenching N-acyl-homoserine lactone acylase / prephenate dehydratase of Komagataeibacter europaeus CECT 8546; 281 amino acid residues, about 30.5 kDa; PDT domain 1-180, ACT domain 194-281; the gene was integrated in pET21a; no removal of the tag by TEV is described; also called native GqqA; GqqA wt; source: E. coli BL21 (DE3), purified (Ni-NTA, size-exclusion chromatography)
B1: the Km is 6.89 ± 0.15 mM in “purified protein [1]”, 4.87 ± 0.12 mM in “purified protein [2]”, 2.36 ± 0.35 mM in the data set “purified protein [3]” and 16.7 ± 0.5 mM in “purified protein [4]”. For the same molecule, the Vmax in “purified protein [1]” came out at 109 µmol/min/mg; in “purified protein [2]”, 117 µmol/min/mg; in the data set “purified protein [3]”, 152 µmol/min/mg; in “purified protein [4]”, 13.8 µmol/min/mg. Further, the Vmax/Km in the data set “purified protein [1]” came out at 15900 µL/min/mg; in “purified protein [2]”, 24100 µL/min/mg; in the data set “purified protein [3]” it was 64500 µL/min/mg; in the data set “purified protein [4]”, 820 µL/min/mg. In data set [5], the “stoichiometry N” value stood at 2.
